Test results: PMC7376604 (Cell reports, 2020)

Assays:
[1] = molecular target: human GLP-1 receptor (GLP-1R) (human) (UniProt P43220)
[2] = tested on: shrews (Suncus murinus); test: Food intake and body weight; assay type: in vivo; details: shrew, albiglutide 0.5 and 5 mg/kg i.p.

UniProt P43220, sequence (P43220 24-463): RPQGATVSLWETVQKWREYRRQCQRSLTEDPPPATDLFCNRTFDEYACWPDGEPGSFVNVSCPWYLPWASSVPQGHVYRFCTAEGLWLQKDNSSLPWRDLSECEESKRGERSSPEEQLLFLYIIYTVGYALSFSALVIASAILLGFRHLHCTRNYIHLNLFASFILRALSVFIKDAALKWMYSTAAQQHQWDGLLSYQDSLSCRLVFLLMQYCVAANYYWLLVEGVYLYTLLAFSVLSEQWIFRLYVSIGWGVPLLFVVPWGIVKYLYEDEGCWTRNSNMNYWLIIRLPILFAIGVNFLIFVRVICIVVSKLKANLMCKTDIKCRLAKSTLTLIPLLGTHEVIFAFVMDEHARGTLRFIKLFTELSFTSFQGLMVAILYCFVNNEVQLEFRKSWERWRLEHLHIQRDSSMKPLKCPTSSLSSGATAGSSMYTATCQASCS

Substance | EC50 of agonism at the GLP-1R [1] | anorexia and body-weight loss [2]
HC-Cbi-Ex4 (complex) | 3 nM | –
albiglutide | – | did not cause anorexia and body-weight loss
